In patent US10577406B2, “FKBP-L polypeptides and uses in angiogenesis-mediated disorders” (ALMAC DISCOVERY LIMITED, priority 2006, dated 2020):

Key:
HMEC-1 = format: cell-based, Human
Protocol: (§1) The in vitro tubule formation assay used in these studies is a modified version of the method described by Ashton et al (1999). In brief, assays were conducted using BD BioCoat™ Matrigel™ Matrix Thin Layer 24-well Multiwell Plates (BD Discovery Labware, Oxford, UK). The Matrigel™ was rehydrated with 500 μl MCDB-131 serum free medium and incubated at 37° C. for 30 minutes. Excess medium was removed and HMEC-1 were seeded at a density of 1×10^5 and the plates incubated at 37° C. under 5% CO2/95% air for 1 hour.
(§2) Increasing concentrations of the recombinant FKBP-L protein (SEQ ID NO: 1) were added to each individual well in triplicate (250-1000 ngml^−1) and the plate was incubated for a further 18 hours. The degree of tubule formation between adjacent HMEC-1 cells was assessed in each well in five fields of view, by counting the number of cell to cell contacts between different HMEC-1 cells in the designated area. An independent investigator assessed each well and the FKBP-L treated wells were compared to sham treated controls.
as §1, with “al.” for “al”, “min.” for “minutes.”, “h. Increasing concentrations of FKBP-L 24mer (SEQ ID NO: 10) and 1-57mer (SEQ ID NO: 6) from 10^−14-10^−6 M were used.” for “hour.”
as §2, with “The” for “Increasing concentrations of the recombinant FKBP-L protein (SEQ ID NO: 1) were added to each individual well in triplicate (250-1000 ngml^−1) and the”, “h.” for “hours.”

[1] = tested on: PC3 (prostate tumor cell line; CD44 +ve); assay: tumor cell migration, wound closure assay, PC3; format: cell-based; settings: for effect on tumor cell migration: PC3
Protocol: In these experiments, the effect of recombinant FKBP-L on tumor cell migration was assessed. The in vitro migration assay used in these studies is a modified version of the method described by Ashton et al (1999) see supra. PC3, MDA231, and HT29 tumor cells were plated into individual chambers on a glass slide and grown to 90% confluence overnight. The medium was removed and the monolayers wounded. The monolayer was re-supplemented with fresh medium and the required volume of His-tagged recombinant FKBP-L protein (SEQ ID NO: 1) was added to give the final concentrations shown. The monolayers were incubated for 24 hours and then fixed in 4% PBS buffered paraformaldehyde.
The extent of “wound” closure was blindly assessed microscopically by an independent investigator and quantified using a calibrated eyepiece graticule (1 mm/100 μm graduation) at 20× magnification (Olympus BX 50). The extent of closure in the FKBP-L treated slides was compared to time matched sham-treated controls and the percent inhibition of wound closure compared to time matched controls calculated.
The in vitro migration assay used in these studies is a modified version of the method described by Ashton et al. (1999) see supra. PC3 (prostate tumor cell line; CD44 positive; CD44 +ve), MDA231 (breast tumor cell line; CD44 +ve), HT29 (Colorectal tumor cell line; CD44 +ve), MCF-7 (breast tumor cell line; CD44 negative; CD44 −ve) and DU145 (prostate tumor cell line; CD44 −ve) were plated into individual chambers on a glass slide and grown to 90% confluence overnight. The medium was removed and the monolayers wounded. […] The monolayers were incubated for 24 h and then fixed in 4% PBS buffered paraformaldehyde.
The extent of “wound” closure was blindly assessed microscopically by an independent investigator and quantified using a calibrated eyepiece graticule (1 mm/100 μm graduation) at 20× magnification (Olympus BX 50). The extent of closure in the FKBP-L treated slides was compared to time matched sham treated controls and the % inhibition of wound closure compared to time matched controls calculated.
PC3 cells were transfected for 72 h with either sicontrol non-targeting siRNA (SCR siRNA) (Dharmacon, Cat #D-001210-01-05) or CD44 targeted siRNA (CD44siRNA) (Dharmacon, Cat #009999). Briefly, 1.2×10^6 PC3 cells were seeded into two P90 dishes and incubated at 37° C. for 24 h. To transfect, 150 μl of the either sicontrol non-targeting siRNA or CD44 targeting siRNA (2 μM) was added to 450 μl of serum free medium (Tube 1). […] The monolayer was fixed after a further 24 h and the extent of wound closure was blindly assessed using a calibrated graticule. Percent inhibition of wound closure in FKBP-L-treated monolayers compared to untreated monolayers was calculated. […]

With “H-QIRQQPRDPPTETLELEVSPDPAS-OH [FKBP-L 24mer]” the EC50 (HMEC-1; 18 h) was 0.03 nM and the “effect on tumor cell migration” value ([1]; 10^−14-10^−7 M, 24 h) was “can inhibit”.

B1: full length recombinant FKBP-L: recombinant full length his-tagged FKBP-L protein (SEQ ID NO: 1) expressed in BL21 (DE3) (protein, listed as Homo sapiens)
chain: MRGSHHHHHHGMASMTGGQQMGRDLYDDDDKDRWGSMETPPVNTIGEKDTSQPQQEWEKNLRENLDSVIQIRQQPRDPPTETLELEVSPDPASQILEHTQGAEKLVAELEGDSHKSHGSTSQMPEALQASDLWYCPDGSFVKKIVIRGHGLDKPKLGSCCRVLALGFPFGSGPPEGWTELTMGVGPWREETWGELIEKCLESMCQGEEAELQLPGHTGPPVGLTLASFTQGRDSWELETSEKEALAREERARGTELFRAGNPEGAARCYGRALRLLLTLPPPGPPERTVLHANLAACQLLLGQPQLAAQSCDRVLEREPGHLKALYRRGVAQAALGNLEKATADLKKVLAIDPKNRAAQEELGKVVIQGKNQDAGLAQGLRKMFG
modifications: His tag
For B1, the “optimum concentration for inhibition of cell to cell contacts or tubules” value (HMEC-1; 250-1000 ngml^−1, 18 hours) was 750 ngml^−1, the “efficacy (inhibition of cell to cell contacts) at optimum concentration” value (HMEC-1; 750 ngml^−1, 18 hours) was 80% and the “EC50 potency, tube formation” value (HMEC-1; 18 hours) was 314 ngml^−1. The “effect on tumor cell migration” value ([1]; 24 hours) was “inhibits tumor cell migration in a dose-dependent manner”, the “effect on migration of CD44 siRNA treated cells” value ([1]; PC3 transfected with CD44 targeted siRNA, 1500 ng/ml, 24 h) was “no effect” and the “inhibition of migration (wound closure) compared to untreated monolayers” value ([1]; PC3 transfected with non-targeting SCR siRNA, 1500 ng/ml, 24 h) was 21.7%.
